For data set [1] the following is noted: in vivo; cited from earlier work.
The next data set deals with HUVEC. The data set can be described thus: Cell killing assay in HUVEC (PrestoBlue viability, 5 days). Format: cell-based. Particulars: Homo sapiens. As for the experimental part: To assess the effect of anti-TM4SF1 ADCs conjugated to carfilzomib, cytotoxicity of treated cell lines were assessed in cultured endothelial cell (HUVEC) and tumor cells (MiaPaca2 and SKOV3) in vitro. HUVEC was treated with free carfilzomib, CFZ-ND-ADC DAR 2.5, and CFZ-ND-ADC DAR 6.7, and maytansine-ND-ADC (DAR 2.0) and cytotoxicity was assessed (FIG. 2A). Cytotoxicity of HUVEC correlates with CFZ DAR. […] Cell killing assay. […] RPMI/10% FBS for MiaPaca2 and SKOV3). Cells are cultured for overnight at 37° C. degrees. On day 2, exemplary ADCs containing CFZ are serially diluted 5-fold in the culture media, and 100 µL of the diluted compounds is transferred to the cell plates. The final top concentration of the test exemplary ADCs in the cell plates is 333.335 nM and the lowest concentration is 0.0043 nM. […] 10 µl PrestoBlue HS cell viability reagent (ThermoFisher cat# P50201) is added to each well and incubated for 1 hour in CO2 incubator before reading the […] at 570 nm/600 nm excitation and emission through a plate reader (Varioskan™ LUX multimode microplate reader). To assess the effect of various anti-TM4SF1 ADCs conjugated to carfilzomib, cytotoxicity of treated cell lines were assessed. HUVEC was treated with free carfilzomib, and six ADCs (Table 1A) conjugated with carfilzomib (CFZ) with various linkers and/or DAR values, and cytotoxicity was assessed (Table 1B).

The target in data set [2] is T1, Transmembrane-4 L six family member-1 (TM4SF1) (human, UniProt P30408 1-202, limits assumed).
T1 construct: also called human TM4SF1; hTM4SF1
T1 sequence: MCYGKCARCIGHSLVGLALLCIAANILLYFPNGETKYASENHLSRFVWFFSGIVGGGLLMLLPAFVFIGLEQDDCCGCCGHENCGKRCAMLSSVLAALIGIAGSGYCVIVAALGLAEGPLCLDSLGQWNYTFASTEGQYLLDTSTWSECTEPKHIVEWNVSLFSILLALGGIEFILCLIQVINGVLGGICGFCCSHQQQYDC
The data set is described as follows: screen, method not described.

Where two headings read alike, the source gives them in different places.

Take `COc1ccc(/C=C\c2cc(OC)c(OC)c(OC)c2)cc1OP(=O)(O)O` [CA4P]: in data set [1], the “patients who experienced heart attacks while being treated” value is listed as “seven”. The term EC50 denotes the concentration needed to bring the measured effect to its halfway point. Turning to `CC(C)C[C@H](NC(=O)[C@H](CCc1ccccc1)NC(=O)CN1CCOCC1)C(=O)N[C@@H](Cc1ccccc1)C(=O)N[C@@H](CC(C)C)C(=O)[C@@]1(C)CO1` [CFZ, (S)-4-Methyl-N—((S)-1-(((S)-4-methyl-1-((R)-2-methyloxiran-2-yl)-1-oxopentan-2-yl)amino)-1-oxo-3-phenylpropan-2-yl)-2-((S)-2-(2-morpholinoacetamido)-4-phenylbutanamido)-pentanamide], the EC50 in the data set on HUVEC (FIG. 2A, read-out: EC50, cytotoxicity of HUVEC) was found to be 11.9 nM; with HUVEC (read-out: killing in vitro (EC50 nM) HUVEC), 11.9 nM.

B1: AGX-A04 (antibody, V domains shown)
VH: EVQLQQSGPELVKPGASVKISCKTSGYTFTDYTMHWVRQSHGKSLEWIGSFNPNNGGLTNYNQKFKGKATLTVDKSSSTVYMDLRSLTSEDSAVYYCTRIRATGFDSWGQGTTLTVSS
VL: DIVMSQSPSSLAVSAGEKVTMSCKSSQSLLNSRTRKNYLAWYQQKPGQSPKLLIYWASTRESGVPDRFTGSGSGTDFTLTISNVQAEDLTVYYCKQSYNPPWTFGGGTKLEIK
notes: Monoclonal murine antibody; also called murine monoclonal antibody AGX-A04
B1: in data set [2], the binding result was “binds”.

B2: AGX-A03 (antibody, V domains shown)
VH: QIQLVQSGPELKKPGETVKISCKASGYSFRDYGMNWVKQAPGRTFKWMGWINTYTGAPVYAADFKGRFAFSLDTSASAAFLQINNLKNEDTATYFCARWVSYGNNRNWFFDFWGAGTTVTVSS
VL: DVLMTQTPLSLPVRLGDQASISCRSSQTLVHSNGNTYLEWYLQKPGQSPKLLIYKVSNRLSGVPDRFSGSGSGTDFTLKISRVETEDLGVYYCFQGSHGPWTFGGGTKLEIK
notes: Monoclonal murine antibody; also called Antibody AGX-A03; murine monoclonal antibody AGX-A03
On to B2, for which, in data set [2], the binding result is reported as “binds”.

B3: AGX-A05 (antibody, V domains shown)
VH: EVQVQQSGPELVKPGASVKMSCKASGYTFTSYVMHWVKQKPGQGLEWIGYINPNNDNINYNEKFKGKASLTSDKSSNTVYMELSSLTSEDSAVYYCAGYGNSGANWGQGTLVTVSA
VL: DIQMTQSPASLSASVGETVTITCRTSKNIFNFLAWYHQKQGRSPRLLVSHTKTLAAGVPSRFSGSGSGTQFSLKINSLQPEDFGIYYCQHHYGTPWTFGGGTKLEIK
notes: Monoclonal murine antibody; also called murine monoclonal antibody AGX-A05
B3: in data set [2], the binding result was “binds”.

B4: AGX-A08 (antibody, V domains shown)
VH: EVQLQQSGPELVKPGASVKLSCKASGYTVTSYVMHWVKQKPGQGLEWIGYINPYSDVTNCNEKFKGKATLTSDKTSSTAYMELSSLTSEDSAVYYCSSYGGGFAYWGQGTLVTVSA
VL: DIQMTQSPASLSASVGEPVTITCRASKNIYTYLAWYHQKQGKSPQFLVYNARTLAGGVPSRLSGSGSVTQFSLNINTLHREDLGTYFCQHHYDTPYTFGGGTNLEIK
notes: Monoclonal murine antibody; also called murine monoclonal antibody AGX-A08
On to B4, for which the binding result in data set [2] is “binds”.

B5: AGX-A07 (antibody, V domains shown)
VH: QIQLVQSGPELKKPGETVKISCKASGYTFTNYGVKWVKQAPGKDLKWMGWINTYTGNPIYAADFKGRFAFSLETSASTAFLQINNLKNEDTATYFCVRFQYGDYRYFDVWGAGTTVTVSS
VL: QIILSQSPAILSASPGEKVTMTCRANSGISFINWYQQKPGSSPKPWIYGTANLASGVPARFGGSGSGTSYSLTISRVEAEDAATYYCQQWSSNPLTFGAGTKLELR
notes: also called murine monoclonal antibody AGX-A07
As for B5, the binding result in data set [2] is listed as “binds”.

B6: AGX-A09 (antibody, V domains shown)
VH: EVQLQQSGPELVKPGASVKMSCKASGYTFSSYVMHWVKQKPGQGLEWIGYINPYSDVTNYNEKFKGKATLTSDRSSNTAYMELSSLTSEDSAVYYCARNYFDWGRGTLVTVSA
VL: DIQMTQSPASLSASVGETVTITCRASKNVYSYLAWFQQKQGKSPQLLVYNAKTLAEGVPSRFSGGGSGTQFSLKINSLQPADFGSYYCQHHYNIPFTFGSGTKLEIK
notes: Monoclonal murine antibody; also called murine monoclonal antibody AGX-A09
With B6, in data set [2], the binding result is reported as “binds”.
